As a reminder, the Kd is the equilibrium constant for the complex coming apart.

“And” between values parts separate entries of the source, which are not always exact repeats. Identical values can stand only once.

These results are taken from article PMC4001326, “DNA polymerase V activity is autoregulated by a novel intrinsic DNA-dependent ATPase”.

Series [1] has as its target pol V Mut E38K/ΔC17 del17-17;RecA:E38K (Escherichia coli (pol V from strain RW644)) (UniProt P0AG11+P04152+P0A7G6). The series is described as follows: fluorescence anisotropy. The following applies: fluorescein-dT replacing T44 (from parent S5); 20 mM Tris-HCl pH 7.5, 25 mM Na glutamate, 8 mM MgCl2, 8 mM DTT, 4% glycerol, 0.1 mM EDTA, 37 C; 50 nM labeled hairpin; 500 uM ATP or ATPgS (titrations to …). On the technique in general: In fluorescence polarisation assays a small probe gives low polarisation when free and higher when bound to something large.

Series [2] has as its target pol V Mut E38K/K72R K72R;RecA:E38K (Escherichia coli (pol V from strain RW644)) (UniProt P0AG11+P04152+P0A7G6). In words: fluorescence anisotropy. The note with it: fluorescein-dT replacing T44 (from parent S5); 20 mM Tris-HCl pH 7.5, 25 mM Na glutamate, 8 mM MgCl2, 8 mM DTT, 4% glycerol, 0.1 mM EDTA, 37 C; 50 nM labeled hairpin; 500 uM ATP or ATPgS (titrations to …).
The target of series [3] is T1, pol V Mut WT (UmuD'2C-RecA-ATP) (Escherichia coli (pol V from strain …, UniProt P0AG11;P04152;P0A7G6 25-139;1-422;2-353)). The series is described as follows: fluorescence anisotropy; 500 uM ATPgS; 20 mM Tris-HCl pH 7.5, 25 mM Na glutamate, 8 mM MgCl2, 8 mM DTT, 4% glycerol, 0.1 mM EDTA, 37 C; 50 nM labeled hairpin; 500 uM ATP or ATPgS (titrations to 750 uM). The following applies: protein: recombinant, tags: His (pol V), chain copies: 2;1;1, label: fluorescein (internal dT), 18 bp stem, 5' overhang 12 nt.

In series [4] the target is T1, pol V Mut WT (UmuD'2C-RecA-ATP). In words: fluorescence anisotropy; ATPgS titration, saturating at about 220 uM; 20 mM Tris-HCl pH 7.5, 25 mM Na glutamate, 8 mM MgCl2, 8 mM DTT, 4% glycerol, 0.1 mM EDTA, 37 C; 50 nM labeled hairpin; 500 uM ATP or ATPgS (titrations to 750 uM). The note with it: protein: recombinant, tags: His (pol V), chain copies: 2;1;1, label: fluorescein (internal dT), 18 bp stem, 5' overhang 3 nt by name.

On to “CGAAACAGGAAAGCAGTTAGCGCATTCAGCTCATACTGCTGAATGCGCTAACTGC [Fluorescein 12 nt oh HP]”, for which the Kd in series [1] was 312 nM and 469 nM; in series [2] it was 920 nM.

B1: Fluorescein 12 nt oh HP (structured_DNA)
DNA: CGAAACAGGAAAGCAGTTAGCGCATTCAGCTCATACTGCTGAATGCGCTAACTGC
modifications: fluorescein-dT replacing T44 (from parent S5)
As for B1, the Kd in series [3] stood at 876 ± 52 nM.

B2: Fluorescein 3 nt oh HP (structured_DNA)
DNA: AGAGCAGTTAGCGCATTCAGCTCATACTGCTGAATGCGCTAACTGC
modifications: fluorescein-dT replacing T17 (from parent S1)
Regarding B2, in series [4], the binding result was “binds”.
